Source: article PMC5007331, “YTHDF2 destabilizes m^6A-containing RNA through direct recruitment of the CCR4–NOT deadenylase complex” (Nature Communications, 2016)

T1: His-tagged full-length YTHDF2 (human, UniProt Q9Y5A9 1-579)
T1 sequence (looked up): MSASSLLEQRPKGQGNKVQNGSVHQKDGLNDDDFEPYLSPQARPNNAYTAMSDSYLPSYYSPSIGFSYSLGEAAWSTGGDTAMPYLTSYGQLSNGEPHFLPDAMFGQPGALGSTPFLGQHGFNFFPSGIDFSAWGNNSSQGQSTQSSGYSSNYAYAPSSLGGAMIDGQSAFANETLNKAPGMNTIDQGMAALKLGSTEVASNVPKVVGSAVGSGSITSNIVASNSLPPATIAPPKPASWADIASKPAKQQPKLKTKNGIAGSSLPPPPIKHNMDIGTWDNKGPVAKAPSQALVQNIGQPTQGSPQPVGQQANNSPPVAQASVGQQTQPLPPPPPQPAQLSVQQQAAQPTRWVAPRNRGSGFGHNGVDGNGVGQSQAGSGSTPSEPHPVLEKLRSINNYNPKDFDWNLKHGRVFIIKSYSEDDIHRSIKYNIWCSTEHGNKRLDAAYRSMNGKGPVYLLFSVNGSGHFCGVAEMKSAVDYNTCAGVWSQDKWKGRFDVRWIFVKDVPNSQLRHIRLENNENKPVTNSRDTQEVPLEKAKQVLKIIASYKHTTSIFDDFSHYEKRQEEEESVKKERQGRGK

B1: His-tagged YTHDF2-N (YTHDF2-1-400) (domain or fragment, human, UniProt Q9Y5A9 1-400, looked up)
chain: MSASSLLEQRPKGQGNKVQNGSVHQKDGLNDDDFEPYLSPQARPNNAYTAMSDSYLPSYYSPSIGFSYSLGEAAWSTGGDTAMPYLTSYGQLSNGEPHFLPDAMFGQPGALGSTPFLGQHGFNFFPSGIDFSAWGNNSSQGQSTQSSGYSSNYAYAPSSLGGAMIDGQSAFANETLNKAPGMNTIDQGMAALKLGSTEVASNVPKVVGSAVGSGSITSNIVASNSLPPATIAPPKPASWADIASKPAKQQPKLKTKNGIAGSSLPPPPIKHNMDIGTWDNKGPVAKAPSQALVQNIGQPTQGSPQPVGQQANNSPPVAQASVGQQTQPLPPPPPQPAQLSVQQQAAQPTRWVAPRNRGSGFGHNGVDGNGVGQSQAGSGSTPSEPHPVLEKLRSINNYNP
notes: YTHDF2, human, N-terminal region, aa 1-400; Cloned into pET-28a; The YTHDF2-N of the tethering plasmids is another construct (aa 1-389); source: E. coli, purified recombinant
B2: His-tagged YTHDF2-101-200 (domain or fragment, human, UniProt Q9Y5A9 101-200, looked up)
chain: PDAMFGQPGALGSTPFLGQHGFNFFPSGIDFSAWGNNSSQGQSTQSSGYSSNYAYAPSSLGGAMIDGQSAFANETLNKAPGMNTIDQGMAALKLGSTEVA
notes: Cloned into pET-28a; source: E. coli, purified recombinant
B3: CNOT1 SH domain-GST fusion protein (aa 1842-2376) (domain or fragment, human, UniProt A5YKK6 1842-2376, looked up)
chain: YDDPPGLREKAEYLLREWVNLYHSAAAGRDSTKAFSAFVGQMHQQGILKTDDLITRFFRLCTEMCVEISYRAQAEQQHNPAANPTMIRAKCYHNLDAFVRLIALLVKHSGEATNTVTKINLLNKVLGIVVGVLLQDHDVRQSEFQQLPYHRIFIMLLLELNAPEHVLETINFQTLTAFCNTFHILRPTKAPGFVYAWLELISHRIFIARMLAHTPQQKGWPMYAQLLIDLFKYLAPFLRNVELTKPMQILYKGTLRVLLVLLHDFPEFLCDYHYGFCDVIPPNCIQLRNLILSAFPRNMRLPDPFTPNLKVDMLSEINIAPRILTNFTGVMPPQFKKDLDSYLKTRSPVTFLSDLRSNLQVSNEPGNRYNLQLINALVLYVGTQAIAHIHNKGSTPSMSTITHSAHMDIFQNLAVDLDTEGRYLFLNAIANQLRYPNSHTHYFSCTMLYLFAEANTEAIQEQITRVLLERLIVNRPHPWGLLITFIELIKNPAFKFWNHEFVHCAPEIEKLFQSVAQCCMGQKQAQQVMEGTGAS

Legend:
[1] = target: B3; assay: pull-down; GST pull-down: 40 pmol YTHDF2 fragment with 40 pmol GST or GST-CNOT1 (aa 1842-2376) on glutathione Sepharose-4B; 20 mM HEPES pH 7.4, 200 mM NaCl, 0.1% Tween-20; 2 h at 4 °C; SDS-PAGE and Coomassie Blue staining; details: both partners purified
[2] = target: T1, His-tagged full-length YTHDF2; assay: as above; details: both partners purified

Binder | binding result [1] | binding result [2]
B1 | binds | –
B2 | binds | –
B3 | – | binds
